From paper PMC2756588

T1: Boi1, P38041
T1 sequence (P38041 1-86, looked up): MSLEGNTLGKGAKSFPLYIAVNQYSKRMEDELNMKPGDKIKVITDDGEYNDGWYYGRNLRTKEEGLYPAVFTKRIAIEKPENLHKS

T2: Nbp2, Q12163
T2 sequence (Q12163 103-180, looked up): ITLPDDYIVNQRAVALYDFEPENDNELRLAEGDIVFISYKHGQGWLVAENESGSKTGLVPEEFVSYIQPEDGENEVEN

T3: Abp1, P15891
T3 sequence (P15891 535-592, looked up): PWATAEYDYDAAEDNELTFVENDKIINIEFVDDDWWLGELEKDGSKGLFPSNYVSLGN

T4: Cyk3, Q07533
T4 sequence (Q07533 1-83, looked up): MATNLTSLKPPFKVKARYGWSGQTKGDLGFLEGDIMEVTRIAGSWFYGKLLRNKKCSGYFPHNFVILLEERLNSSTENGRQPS

T5: Sla1-3, P32790
T5 sequence (P32790 344-424, looked up): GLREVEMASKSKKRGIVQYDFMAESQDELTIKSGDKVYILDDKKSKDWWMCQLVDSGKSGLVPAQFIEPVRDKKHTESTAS

T6: Lsb1, P53281
T6 sequence (P53281 45-122, looked up): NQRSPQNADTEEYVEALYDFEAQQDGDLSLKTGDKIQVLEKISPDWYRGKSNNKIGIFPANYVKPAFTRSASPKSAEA

T7: Pex13, P80667
T7 sequence (P80667 295-386, looked up): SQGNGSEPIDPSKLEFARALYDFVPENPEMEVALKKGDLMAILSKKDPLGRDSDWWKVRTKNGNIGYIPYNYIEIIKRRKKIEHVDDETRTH

T8: Lsb4, P32793
T8 sequence (P32793 402-468, looked up): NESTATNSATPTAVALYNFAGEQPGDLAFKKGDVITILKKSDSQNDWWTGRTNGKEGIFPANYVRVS

T9: Pin3, Q06449
T9 sequence (Q06449 53-122, looked up): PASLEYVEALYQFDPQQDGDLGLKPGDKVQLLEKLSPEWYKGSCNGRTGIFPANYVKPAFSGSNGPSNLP

T10: Fus1, P11710
T10 sequence (P11710 432-512, looked up): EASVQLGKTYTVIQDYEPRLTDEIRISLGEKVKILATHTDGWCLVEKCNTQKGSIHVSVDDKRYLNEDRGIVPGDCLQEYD

T11: Bud14, P27637
T11 sequence (P27637 247-328, looked up): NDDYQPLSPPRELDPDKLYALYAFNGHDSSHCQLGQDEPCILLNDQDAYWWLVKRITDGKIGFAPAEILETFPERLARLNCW

T12: Sla1-2, P32790
T12 sequence (P32790 60-140, looked up): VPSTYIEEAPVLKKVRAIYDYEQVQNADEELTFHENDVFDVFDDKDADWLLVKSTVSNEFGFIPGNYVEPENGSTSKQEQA

T13: Bzz1-2, P38822
T13 sequence (P38822 568-633, looked up): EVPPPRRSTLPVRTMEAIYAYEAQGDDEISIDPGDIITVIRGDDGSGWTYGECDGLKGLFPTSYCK

T14: Cdc25, P04821
T14 sequence (P04821 50-136, looked up): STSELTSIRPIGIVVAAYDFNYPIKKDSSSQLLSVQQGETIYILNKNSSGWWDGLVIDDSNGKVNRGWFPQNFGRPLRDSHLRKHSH

T15: Lsb3, P43603
T15 sequence (P43603 385-451, looked up): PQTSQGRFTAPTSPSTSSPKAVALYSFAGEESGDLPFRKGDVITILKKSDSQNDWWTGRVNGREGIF

T16: Boi2, P39969
T16 sequence (P39969 32-116, looked up): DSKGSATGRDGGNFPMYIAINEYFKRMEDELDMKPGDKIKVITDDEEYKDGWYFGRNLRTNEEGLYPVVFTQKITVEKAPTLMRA

T17: Bzz1-1, P38822
T17 sequence (P38822 478-572, looked up): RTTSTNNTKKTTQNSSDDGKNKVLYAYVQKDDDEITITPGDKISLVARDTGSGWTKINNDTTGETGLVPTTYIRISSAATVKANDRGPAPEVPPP

T18: Bbc1, P47068
T18 sequence (P47068 1-78, looked up): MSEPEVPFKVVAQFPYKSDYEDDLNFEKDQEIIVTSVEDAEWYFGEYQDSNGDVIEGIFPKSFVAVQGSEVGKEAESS

T19: Myo5, Q04439
T19 sequence (Q04439 1072-1160, looked up): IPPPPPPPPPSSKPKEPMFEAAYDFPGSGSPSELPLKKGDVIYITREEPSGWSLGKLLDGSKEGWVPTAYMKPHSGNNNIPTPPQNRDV

T20: Hse1, P38753
T20 sequence (P38753 208-285, looked up): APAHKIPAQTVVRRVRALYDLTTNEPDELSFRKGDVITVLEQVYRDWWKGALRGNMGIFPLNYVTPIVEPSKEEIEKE

T21: Hof1, Q05080
T21 sequence (Q05080 590-669, looked up): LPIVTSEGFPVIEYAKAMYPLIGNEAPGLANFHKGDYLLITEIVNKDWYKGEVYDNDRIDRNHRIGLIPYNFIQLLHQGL


Target: T1, Boi1, P38041
Test: SPOT array
Conditions: median of control spots 1162

SPOT intensity | Binder
0 | QRIRKIPGIPLMSVG
0 | QGYPRQPQRPQRYHP
0 | SSTPTTPERPKRKSG

Target: T2, Nbp2, Q12163
Test: SPOT array
Conditions: median of control spots 357

SPOT intensity | Binder
5 | QRIRKIPGIPLMSVG
0 | QGYPRQPQRPQRYHP
0 | SSTPTTPERPKRKSG

Target: Bem1-1, P29366
Sequence (P29366 55-141): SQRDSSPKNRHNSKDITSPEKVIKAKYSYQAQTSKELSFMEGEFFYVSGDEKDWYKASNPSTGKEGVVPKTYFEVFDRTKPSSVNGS
Test: SPOT array
Conditions: median of control spots 4282

SPOT intensity | Binder
0 | QRIRKIPGIPLMSVG
0 | QGYPRQPQRPQRYHP
1 | SSTPTTPERPKRKSG

Target: T3, Abp1, P15891
Test: SPOT array
Conditions: median of control spots 935

SPOT intensity | Binder
110 | QRIRKIPGIPLMSVG
9 | QGYPRQPQRPQRYHP
22 | SSTPTTPERPKRKSG

Target: T4, Cyk3, Q07533
Test: SPOT array
Conditions: median of control spots 1451

SPOT intensity | Binder
2 | QRIRKIPGIPLMSVG
1 | QGYPRQPQRPQRYHP
1 | SSTPTTPERPKRKSG

Target: GST
Test: SPOT array
Conditions: median of control spots 978

SPOT intensity | Binder
0 | QRIRKIPGIPLMSVG
1 | QGYPRQPQRPQRYHP
2 | SSTPTTPERPKRKSG

Target: T5, Sla1-3, P32790
Test: SPOT array
Conditions: median of control spots 5475

SPOT intensity | Binder
8 | QRIRKIPGIPLMSVG
0 | QGYPRQPQRPQRYHP
0 | SSTPTTPERPKRKSG

Target: T6, Lsb1, P53281
Test: SPOT array
Conditions: median of control spots 388

SPOT intensity | Binder
78 | QRIRKIPGIPLMSVG
1 | QGYPRQPQRPQRYHP
316 | SSTPTTPERPKRKSG

Target: T7, Pex13, P80667
Test: SPOT array
Conditions: median of control spots 1341

SPOT intensity | Binder
90 | QRIRKIPGIPLMSVG
7 | QGYPRQPQRPQRYHP
8 | SSTPTTPERPKRKSG

Target: T8, Lsb4, P32793
Test: SPOT array
Conditions: median of control spots 397

SPOT intensity | Binder
24 | QRIRKIPGIPLMSVG
16 | QGYPRQPQRPQRYHP
363 | SSTPTTPERPKRKSG

Target: T9, Pin3, Q06449
Test: SPOT array
Conditions: median of control spots 2171

SPOT intensity | Binder
71 | QRIRKIPGIPLMSVG
2 | QGYPRQPQRPQRYHP
6 | SSTPTTPERPKRKSG

Target: Bem1-2, P29366
Sequence (P29366 139-227): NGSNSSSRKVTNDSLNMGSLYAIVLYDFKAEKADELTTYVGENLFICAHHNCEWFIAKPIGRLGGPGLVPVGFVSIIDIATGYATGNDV
Test: SPOT array
Conditions: median of control spots 4347

SPOT intensity | Binder
0 | QRIRKIPGIPLMSVG
1 | QGYPRQPQRPQRYHP
0 | SSTPTTPERPKRKSG

Target: Rvs167, P39743
Sequence (P39743 419-482): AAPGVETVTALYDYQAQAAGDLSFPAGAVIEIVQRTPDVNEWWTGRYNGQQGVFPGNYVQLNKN
Test: SPOT array
Conditions: median of control spots 2707

SPOT intensity | Binder
156 | QRIRKIPGIPLMSVG
0 | QGYPRQPQRPQRYHP
0 | SSTPTTPERPKRKSG

Target: T10, Fus1, P11710
Test: SPOT array
Conditions: median of control spots 1200

SPOT intensity | Binder
6 | QRIRKIPGIPLMSVG
0 | QGYPRQPQRPQRYHP
0 | SSTPTTPERPKRKSG

Target: T11, Bud14, P27637
Test: SPOT array
Conditions: median of control spots 956

SPOT intensity | Binder
9 | QRIRKIPGIPLMSVG
1 | QGYPRQPQRPQRYHP
0 | SSTPTTPERPKRKSG

Target: T12, Sla1-2, P32790
Test: SPOT array
Conditions: median of control spots 712

SPOT intensity | Binder
4 | QRIRKIPGIPLMSVG
0 | QGYPRQPQRPQRYHP
0 | SSTPTTPERPKRKSG

Target: T13, Bzz1-2, P38822
Test: SPOT array
Conditions: median of control spots 4538

SPOT intensity | Binder
13 | QRIRKIPGIPLMSVG
0 | QGYPRQPQRPQRYHP
1 | SSTPTTPERPKRKSG

Target: Myo3, P36006
Test: SPOT array
Conditions: median of control spots 468

SPOT intensity | Binder
28 | QRIRKIPGIPLMSVG
0 | QGYPRQPQRPQRYHP
0 | SSTPTTPERPKRKSG

Target: T14, Cdc25, P04821
Test: SPOT array
Conditions: median of control spots 969

SPOT intensity | Binder
2 | QRIRKIPGIPLMSVG
0 | QGYPRQPQRPQRYHP
1 | SSTPTTPERPKRKSG

Target: T15, Lsb3, P43603
Test: SPOT array
Conditions: median of control spots 406

SPOT intensity | Binder
51 | QRIRKIPGIPLMSVG
46 | QGYPRQPQRPQRYHP
442 | SSTPTTPERPKRKSG

Target: T16, Boi2, P39969
Test: SPOT array
Conditions: median of control spots 1161

SPOT intensity | Binder
0 | QRIRKIPGIPLMSVG
0 | QGYPRQPQRPQRYHP
2 | SSTPTTPERPKRKSG

Target: T17, Bzz1-1, P38822
Test: SPOT array
Conditions: median of control spots 4446

SPOT intensity | Binder
0 | QRIRKIPGIPLMSVG
0 | QGYPRQPQRPQRYHP
1 | SSTPTTPERPKRKSG

Target: Sho1, P40073
Sequence (P40073 287-367): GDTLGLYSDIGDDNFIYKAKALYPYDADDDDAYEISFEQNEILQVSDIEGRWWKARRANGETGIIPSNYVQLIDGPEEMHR
Test: SPOT array
Conditions: median of control spots 1148

SPOT intensity | Binder
42 | QRIRKIPGIPLMSVG
0 | QGYPRQPQRPQRYHP
0 | SSTPTTPERPKRKSG

Target: T18, Bbc1, P47068
Test: SPOT array
Conditions: median of control spots 796

SPOT intensity | Binder
16 | QRIRKIPGIPLMSVG
34 | QGYPRQPQRPQRYHP
559 | SSTPTTPERPKRKSG

Target: T19, Myo5, Q04439
Test: SPOT array
Conditions: median of control spots 471

SPOT intensity | Binder
7 | QRIRKIPGIPLMSVG
0 | QGYPRQPQRPQRYHP
0 | SSTPTTPERPKRKSG

Target: T20, Hse1, P38753
Test: SPOT array
Conditions: median of control spots 1727

SPOT intensity | Binder
7 | QRIRKIPGIPLMSVG
3 | QGYPRQPQRPQRYHP
0 | SSTPTTPERPKRKSG

Target: T21, Hof1, Q05080
Test: SPOT array
Conditions: median of control spots 4086

SPOT intensity | Binder
13 | QRIRKIPGIPLMSVG
3 | QGYPRQPQRPQRYHP
0 | SSTPTTPERPKRKSG
